Measurements as given in IntAct's records for PubMed 21784946.

B1: Cell division protein FtsB (Escherichia coli (strain K12)), P0A6S5 (parent)
chain: MGKLTLLLLAILVWLQYSLWFGKNGIHDYTRVNDDVAAQQATNAKLKARNDQLFAEIDDLNGGQEALEERARNELSMTRPGETFYRLVPDASKRAQSAGQNNR
partner: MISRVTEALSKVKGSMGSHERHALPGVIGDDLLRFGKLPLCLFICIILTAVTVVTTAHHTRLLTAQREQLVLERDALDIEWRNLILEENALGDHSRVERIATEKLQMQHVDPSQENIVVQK
B2: Cell division protein FtsL (Escherichia coli (strain K12)), P0AEN4 (parent)
chain: B1 partner
partner: B1 chain

Variants of: B1
Conditions: with ftsl_ecoli ftsL, P0AEN4

Row | effect of a mutation on the interaction | Variant
1 | decreasing interaction | L46A;L53A;L60A;L67A

Variants of: B1
Conditions: with ftsl_ecoli ftsL

Row | effect of a mutation on the interaction | Variant
2 | decreasing interaction | L46A;L53A;L60A;L67A

Variants of: B2
Conditions: with ftsb_ecoli ftsB, P0A6S5

Row | effect of a mutation on the interaction | Variant
3 | decreasing interaction strength | L63A;L70A;L77A;L84A
